Laboratory results as given in patent US20190309078A1 (Hoffmann-La Roche, published 2019).

Target: human CSF-1R fragment D1-D3 (human, UniProt P07333 20-311)
Assay: SPR
Description: The binding of […] anti-CSF-1R antibodies to human CSF-1R fragment D1-D3 (SEQ ID NO:13) was measured as described in Example 10 of WO2011/070024.

binding result: no binding
B1: emactuzumab (antibody, V domains shown)
VH: QVQLVQSGAEVKKPGASVKVSCKASGYTFTSYDISWVRQAPGQGLEWMGVIWTDGGTNYAQKLQGRVTMTTDTSTSTAYMELRSLRSDDTAVYYCARDQRLYFDVWGQGTTVTVSS
VL: DIQMTQSPSSLSASVGDRVTITCRASEDVNTYVSWYQQKPGKAPKLLIYAASNRYTGVPSRFSGSGSGTDFTLTISSLQPEDFATYYCQQSFSYPTFGQGTKLEIK
notes: also called anti-CSF-1R antibody emactuzumab; <CSF-1R> MAb
